A value given as a limit tells only on which side of the number the result lay.

The assay deals with T1, HLA-A*02:01 (human).
T1 construct: monomers captured on streptavidin plates; also called MHC class I
Description: UV peptide exchange ELISA. From the text: Candidate peptides for T cell based therapies according to the present invention were further tested for their MHC binding capacity (affinity). The individual peptide-MHC complexes were produced by UV-ligand exchange, where a UV-sensitive peptide is cleaved upon UV-irradiation, and exchanged with the peptide of interest as analyzed. Only peptide candidates that can effectively bind and stabilize the peptide-receptive MHC molecules prevent dissociation of the MHC complexes. To determine the yield of the exchange reaction, an ELISA was performed based on the detection of the light chain (p2m) of stabilized MHC complexes.
96 well MAXISorp plates (NUNC) were coated over night with 2 μg/ml streptavidin in PBS at room temperature, washed 4× and blocked for 1 h at 37° C. in 2% BSA containing blocking buffer. […] Peptide-MHC monomers of the UV-exchange reaction were diluted 100 fold in blocking buffer. Samples were incubated for 1h at 37° C., washed four times, incubated with 2 μg/ml HRP conjugated anti-p2m for 1h at 37° C., washed again and detected with TMB solution that is stopped with […]. Absorption was measured at 450 nm.
Regarding FLSPQQPPLLL, the peptide exchange yield lay in the range of 20 to 50%.

For VLSETLYEL, the peptide exchange yield fell in the range of 20 to 50%.

In turn, RLPGPLGTV had a peptide exchange yield of 20 to 50%.

With SLLKVLPAL, the peptide exchange yield was in the range of 50 to 75%.

As to NLWEDPYYL, the peptide exchange yield lay within 50 to 75%.

For LLQKFVPEI, the peptide exchange yield was in the range of 20 to 50%.

Regarding ALWDQDNLSV, the peptide exchange yield is 20 to 50%.

ALLEAQDVELYL yielded a peptide exchange yield of 20 to 50%.

Turning to ALMEDTGRQML, the peptide exchange yield was in the range of 20 to 50%.

For QLINHLHAV, the peptide exchange yield fell in the range of 50 to 75%.

Molecule AMQEYIAVV gave a peptide exchange yield of 20 to 50%.

In turn, FLLDLDPLLL gave a peptide exchange yield of 50 to 75%.

The molecule LLWPGAALL returned a peptide exchange yield of 20 to 50%.

For the molecule NLIENVQRL, the peptide exchange yield was in the range of 20 to 50%.

Regarding ALIHPVSTV, the peptide exchange yield lay in the range of 20 to 50%.

SALEELVNV had a peptide exchange yield of 20 to 50%.

ALYEEGLLL displayed a peptide exchange yield of 20 to 50%.

In turn, AAYGGLNEKSFV came in with a peptide exchange yield of 50 to 75%.

For the molecule KLSDIGITV, the peptide exchange yield is 50 to 75%.

YLMDESLNL: the peptide exchange yield fell in the range of 50 to 75%.

In turn, ILVDWLVEV had a peptide exchange yield of 10 to 20%.

The molecule ILVDWLVQV returned a peptide exchange yield of 50 to 75%.

Molecule MLYVVPIYL came in with a peptide exchange yield of 20 to 50%.

Take YLNDLHEVLL: the peptide exchange yield is at least 75%.

Molecule TLIDAQWVL showed a peptide exchange yield of 50 to 75%.

ALLENIALYL yielded a peptide exchange yield of 50 to 75%.

ALMNTLLYL yielded a peptide exchange yield of 20 to 50%.
